The supplement of paper PMC10126150
± gives the standard deviation of the averaged measurements.

System: ATP
Test: switch fluorescence ratio, 500 uM ATP over buffer (Cy3 cluster intensity, sum of 5 cycles each) (fold (ratio)); higher = stronger signal-on switching upon ATP binding; sequences stand for … in TCGTCGGCAGCGTCAGATGTGTATAAGAGACAGTTTTTTTTTTTTTTTTTTTTTTTTT…TC
Conditions: aptamer strand: ATP DNA aptamer (quencher-CACCTGGGGGAGTATTGCGGAGGAAGG + anchor), 100 nM annealed; ATP concentration: 500 uM
Method in brief: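 Switching-strand clusters labelled with Cy3 on a modified Illumina MiSeq flow-cell were annealed to 100 nM quencher-labelled ATP aptamer, imaged in selection buffer, and re-imaged after 15 min with 500 uM ATP at 22 °C. This was done over five cycles with NaOH stripping and re-annealing in between. The fluorescence ratio is summed target-cycle over summed buffer-cycle Cy3 intensity per cluster, averaged per switch-domain sequence, excluding clusters outside 100-1000 RFU.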
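Note: ATP exposure 15 min at 22 °C before imaging.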

Sequence | switch fluorescence ratio
AGGTTGGAGA | 0.992 ± 0.023
AGGTTGGAGG | 0.976 ± 0.018
AGGTTGGAGT | 1.02 ± 0.04
AGGTTGTGGT | 1.01 ± 0.016
AGGTTGTTAT | 0.969 ± 0.013
AGGTTTAGAC | 1.01 ± 0.021
AGGTTTAGGG | 1.03 ± 0.034
AGGTTTAGTT | 0.993 ± 0.0065
AGGTTTATGT | 1.0099 ± 0.00068
AGGTTTATTG | 0.993 ± 0.0097
AGGTTTGCGG | 1.011 ± 0.0037
AGGTTTGGAC | 1.09 ± 0.17
AGGTTTGGGG | 1.04 ± 0.033
AGGTTTGTGA | 0.995 ± 0.029
AGGTTTTAGT | 1.013 ± 0.005
AGGTTTTTAA | 1.01 ± 0.043
AGGTTTTTGC | 1.02 ± 0.02
AGGTTTTTGT | 0.982 ± 0.036
AGGTTTTTTT | 0.993 ± 0.017
AGTAAAATAG | 0.968 ± 0.017
AGTAAATTCT | 0.9887 ± 0.0015
AGTAAGGGTT | 1 ± 0.048
AGTAATGGGA | 1.06 ± 0.064

Sequence | switch fluorescence ratio
AGTAATTTGT | 0.988 ± 0.019
AGTACAGGCG | 1.024 ± 0.0097
AGTACGAGCC | 1.186 ± 0.0026
AGTACGATAT | 1.14 ± 0.025
AGTACGGGGT | 0.982 ± 0.031
AGTACTCTGT | 1.01 ± 0.039
AGTACTTGCC | 1.03 ± 0.016
AGTAGATTTT | 0.986 ± 0.04
AGTAGCAGCG | 0.963 ± 0.04
AGTAGCGGGA | 1.02 ± 0.024
AGTAGCGGGT | 0.981 ± 0.026
AGTAGGACTC | 1.01 ± 0.013
AGTAGGGAAA | 1 ± 0.033
AGTAGGGCAG | 0.9976 ± 0.006
AGTAGGGCGA | 1 ± 0.092
AGTAGGGCGT | 0.9964 ± 0.0088
AGTAGGGCTT | 1.01 ± 0.039
AGTAGGGGAG | 1.01 ± 0.028
AGTAGGGGTG | 1.01 ± 0.032
AGTAGGTAAT | 0.9902 ± 0.0071
AGTAGGTG | 1.05 ± 0.04
AGTAGTAAGA | 1.01 ± 0.022
AGTAGTATAT | 0.994 ± 0.03

Sequence | switch fluorescence ratio
AGTAGTATTT | 1.017 ± 0.0014
AGTATAGCGA | 1.01 ± 0.035
AGTATATAC | 1.02 ± 0.029
AGTATCATGT | 1.02 ± 0.063
AGTATCATTT | 0.952 ± 0.02
AGTATGACGG | 0.986 ± 0.036
AGTATGTAGC | 0.997 ± 0.032
AGTATGTGAA | 0.97601 ± 0.00029
AGTATTCAAA | 1 ± 0.018
AGTATTCTTA | 0.99324 ± 0.00072
AGTATTGCGA | 0.974 ± 0.01
AGTATTGGGG | 0.999 ± 0.025
AGTATTTAGT | 1.003 ± 0.0092
AGTATTTTGC | 0.969 ± 0.085
AGTATTTTGT | 0.974 ± 0.011
AGTCAATGAC | 0.968 ± 0.012
AGTCAATTGC | 1 ± 0.033
AGTCAGATTC | 1 ± 0.058
AGTCATCACC | 1.02 ± 0.023
AGTCATCTGC | 1 ± 0.013
AGTCATGGAG | 0.987 ± 0.042
AGTCATGTGC | 0.979 ± 0.038
AGTCCCGCCT | 1.12 ± 0.14

Sequence | switch fluorescence ratio
AGTCCGATGT | 1.04 ± 0.038
AGTCCGTCTA | 1.01 ± 0.05
AGTCCTTGGA | 0.99 ± 0.069
AGTCGACGTA | 1.04 ± 0.089
AGTCGAGTGG | 1.02 ± 0.047
AGTCGATGTG | 0.966 ± 0.025
AGTCGATTTT | 0.978 ± 0.012
AGTCGCACGA | 0.986 ± 0.016
AGTCGGGCGG | 1 ± 0.026
AGTCGGGGTT | 0.979 ± 0.01
AGTCGGGTAC | 1.04 ± 0.033
AGTCGGTACG | 0.994 ± 0.096
AGTCTAAATT | 1.02 ± 0.011
AGTCTGACCA | 1.018 ± 0.005
AGTCTGGATG | 0.96 ± 0.02
AGTCTGGTCC | 0.987 ± 0.01
AGTCTGTGCT | 0.97353 ± 0.00097
AGTCTTGCTG | 0.989 ± 0.02
AGTCTTTTGT | 0.997 ± 0.026
AGTCTTTTTT | 1 ± 0.0038
AGTGAAGCTG | 0.996 ± 0.027
AGTGAGAATC | 1.036 ± 0.0046
AGTGAGGCGT | 0.984 ± 0.018

Sequence | switch fluorescence ratio
AGTGAGTCCG | 0.996 ± 0.01
AGTGAGTCTT | 0.994 ± 0.032
AGTGATAGAT | 0.967 ± 0.023
AGTGCAAAAG | 1.06 ± 0.029
AGTGCAGGTT | 0.97386 ± 7.1e-05
AGTGCGAAGG | 0.97211 ± 0.00025
AGTGCGGGGA | 0.993 ± 0.04
AGTGCGGGTC | 1.02 ± 0.012
AGTGCTTCGT | 0.9905 ± 0.0094
AGTGGAGGGG | 0.969 ± 0.029
AGTGGAGGTG | 1.03 ± 0.043
AGTGGCATGT | 0.986 ± 0.012
AGTGGCCGGG | 1.01 ± 0.027
AGTGGCGTGT | 0.988 ± 0.022
AGTGGGAAAG | 0.965 ± 0.027
AGTGGGCGCA | 1.04 ± 0.042
AGTGGGGCAG | 0.986 ± 0.0071
AGTGGGGCC | 1 ± 0.075
AGTGGGGCTT | 0.985 ± 0.043
AGTGGGGTTT | 0.976 ± 0.013
AGTGGGTGCT | 1.02 ± 0.039
AGTGGTCG | 1.04 ± 0.033
AGTGGTGATC | 1.04 ± 0.018

Sequence | switch fluorescence ratio
AGTGGTTCG | 1 ± 0.018
AGTGGTTGTG | 0.973 ± 0.0069
AGTGTAATAT | 1 ± 0.023
AGTGTATGGC | 1.01 ± 0.032
AGTGTCACGA | 1.01 ± 0.015
AGTGTCGCTG | 1.008 ± 0.0012
AGTGTCTGC | 0.97 ± 0.087
AGTGTCTGGG | 0.992 ± 0.022
AGTGTGAGGT | 0.9858 ± 0.0091
AGTGTGTGGA | 1.04 ± 0.021
AGTGTGTGGG | 1.02 ± 0.03
AGTGTTCGTT | 0.959 ± 0.023
AGTGTTGGGC | 1.05 ± 0.023
AGTGTTTAAT | 0.999 ± 0.032
AGTGTTTTGG | 0.967 ± 0.024
AGTGTTTTTT | 1.01 ± 0.046
AGTTAACATG | 0.978 ± 0.016
AGTTAACTGT | 0.996 ± 0.032
AGTTAAGAGC | 1.01 ± 0.038
AGTTAAGATA | 0.9907 ± 0.0031
AGTTACATTG | 1.02 ± 0.041
AGTTACCA | 1.054 ± 0.0038
AGTTACCTCT | 1.03 ± 0.013

Sequence | switch fluorescence ratio
AGTTACGGGT | 1.033 ± 0.0032
AGTTAGGAGG | 0.947 ± 0.053
AGTTAGGGGA | 1.01 ± 0.038
AGTTAGTGT | 0.978 ± 0.051
AGTTAGTTTT | 1 ± 0.017
AGTTATACAA | 1.01 ± 0.037
AGTTATAGCT | 0.985 ± 0.014
AGTTATAGTT | 0.997 ± 0.052
AGTTCACTAT | 0.975 ± 0.011
AGTTCATCTT | 0.964 ± 0.015
AGTTCGATGT | 1.01 ± 0.025
AGTTCGCTGT | 0.9889 ± 0.0067
AGTTCGGGGT | 1.02 ± 0.024
AGTTCGTAGT | 1.03 ± 0.049
AGTTCGTTTT | 0.987 ± 0.019
AGTTCTGGGT | 1.04 ± 0.081
AGTTCTGTTT | 0.994 ± 0.047
AGTTCTTATT | 0.965 ± 0.037
AGTTGAAACA | 1.02 ± 0.016
